Measured values from the supplement of paper PMC7125110.
± gives the standard error. Variants at the floor of the assay were thinned out.

B1: glmS ribozyme (parent)
chain: AUAAAAGCGCCAGAACUACAGAAAUGUAGUUGACGAGGAGGAGGUUUAUCGAAUUUUCGGCGGAUGCCUCCAAA

How the values were obtained:
Conditions in all cases: with glucosamine-6-phosphate
[1] = variants of: B1; experiment: self-cleavage kobs at 40 uM GlcN6P; higher = faster cleavage; RNA array
Method in brief: (§1)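 On sequenced MiSeq chips, barcoded ribozyme variants were made in situ by E. coli RNA polymerase and followed at 37 °C through a hybridised Cy3 probe. Glucosamine-6-phosphate was flowed in at 40 μM to 10 mM in HEPES/KCl/Mg(OAc)2 buffer. Exponential fits to normalised per-tile medians gave kobs, and weighted Michaelis–Menten fits gave kcat and KM.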

[2] = variants of: B1; experiment: self-cleavage kobs at 160 uM GlcN6P; higher = faster cleavage; RNA array
Method in brief: as §1

[3] = variants of: B1; experiment: self-cleavage kobs at 10000 uM GlcN6P; higher = faster cleavage; RNA array
Method in brief: as §1

[4] = variants of: B1; experiment: self-cleavage kobs at 640 uM GlcN6P; higher = faster cleavage; RNA array
Method in brief: as §1

[5] = variants of: B1; experiment: self-cleavage kobs at 2500 uM GlcN6P; higher = faster cleavage; RNA array
Method in brief: as §1

Variant	self-cleavage kobs at 40 uM GlcN6P [1] [s⁻¹]	self-cleavage kobs at 160 uM GlcN6P [2] [s⁻¹]	self-cleavage kobs at 10000 uM GlcN6P [3] [s⁻¹]	self-cleavage kobs at 640 uM GlcN6P [4] [s⁻¹]	self-cleavage kobs at 2500 uM GlcN6P [5] [s⁻¹]
G35U G38A	< 1e-05	< 1e-05	< 1e-05	–	–
U55A C68U	0.000668 ± 0.00012	0.000841 ± 0.00019	0.0158 ± 0.004	0.00148 ± 0.00045	0.00477 ± 0.00099
A48U G62C C70U	< 1e-05	–	< 1e-05	< 1e-05	< 1e-05
C8G G43U	< 1e-05	–	–	< 1e-05	< 1e-05
G9C A12C A14U U49G	< 1e-05	–	–	–	< 1e-05
C8U G43A U56C	< 1e-05	–	< 1e-05	–	–
C8G G37C C67G	< 1e-05	–	< 1e-05	–	< 1e-05
A33G G40U U49C	< 1e-05	–	< 1e-05	–	–
C58G G62U C68A	4.88e-05 ± 1.8e-05	–	–	–	–
A53G C67A C70U	0.000161 ± 2.5e-05	–	0.00035 ± 9e-05	–	–
G51A G62C	< 1e-05	< 1e-05	< 1e-05	< 1e-05	< 1e-05
A39C U65G C70G	< 1e-05	< 1e-05	< 1e-05	< 1e-05	–
U47A U57G C58U C70U	< 1e-05	–	–	–	–
G38U G51C	< 1e-05	–	–	< 1e-05	< 1e-05
A52C C71G	< 1e-05	–	–	< 1e-05	< 1e-05
C10U G37U U45A	< 1e-05	–	–	–	–
G32A C50A U55G C71G	< 1e-05	–	–	–	–
U30C U45A U47C C50U G60U C68U	< 1e-05	–	–	–	–
C16G G51A	< 1e-05	< 1e-05	< 1e-05	–	–
U45A C61A	< 1e-05	–	< 1e-05	< 1e-05	< 1e-05
U30G U31G U46G U55A	0.000118 ± 3.3e-05	–	0.00358 ± 0.00067	–	–
U30A U54A G59U G62U C67U C70U	< 1e-05	–	< 1e-05	–	–
C8G A39C	< 1e-05	< 1e-05	< 1e-05	< 1e-05	< 1e-05
A14U A33U C34G G35C U69A	3.35e-05 ± 1e-05	–	7.09e-05 ± 1.3e-05	–	–
